Reference: IntAct's records for PubMed 18063693

B1: Estrogen-related receptor gamma (Homo sapiens), P62508 (parent)
chain: MDSVELCLPESFSLHYEEELLCRMSNKDRHIDSSCSSFIKTEPSSPASLTDSVNHHSPGGSSDASGSYSSTMNGHQNGLDSPPLYPSAPILGGSGPVRKLYDDCSSTIVEDPQTKCEYMLNSMPKRLCLVCGDIASGYHYGVASCEACKAFFKRTIQGNIEYSCPATNECEITKRRRKSCQACRFMKCLKVGMLKEGVRLDRVRGGRQKYKRRIDAENSPYLNPQLVQPAKKPYNKIVSHLLVAEPEKIYAMPDPTVPDSDIKALTTLCDLADRELVVIIGWAKHIPGFSTLSLADQMSLLQSAWMEILILGVVYRSLSFEDELVYADDYIMDEDQSKLAGLLDLNNAILQLVKKYKSMKLEKEEFVTLKAIALANSDSMHIEDVEAVQKLQDVLHEALQDYEAGQHMEDPRRAGKMLMTLPLLRQTSTKAVQHFYNIKLEGKVPMHKLFLEMLEAKV
partner: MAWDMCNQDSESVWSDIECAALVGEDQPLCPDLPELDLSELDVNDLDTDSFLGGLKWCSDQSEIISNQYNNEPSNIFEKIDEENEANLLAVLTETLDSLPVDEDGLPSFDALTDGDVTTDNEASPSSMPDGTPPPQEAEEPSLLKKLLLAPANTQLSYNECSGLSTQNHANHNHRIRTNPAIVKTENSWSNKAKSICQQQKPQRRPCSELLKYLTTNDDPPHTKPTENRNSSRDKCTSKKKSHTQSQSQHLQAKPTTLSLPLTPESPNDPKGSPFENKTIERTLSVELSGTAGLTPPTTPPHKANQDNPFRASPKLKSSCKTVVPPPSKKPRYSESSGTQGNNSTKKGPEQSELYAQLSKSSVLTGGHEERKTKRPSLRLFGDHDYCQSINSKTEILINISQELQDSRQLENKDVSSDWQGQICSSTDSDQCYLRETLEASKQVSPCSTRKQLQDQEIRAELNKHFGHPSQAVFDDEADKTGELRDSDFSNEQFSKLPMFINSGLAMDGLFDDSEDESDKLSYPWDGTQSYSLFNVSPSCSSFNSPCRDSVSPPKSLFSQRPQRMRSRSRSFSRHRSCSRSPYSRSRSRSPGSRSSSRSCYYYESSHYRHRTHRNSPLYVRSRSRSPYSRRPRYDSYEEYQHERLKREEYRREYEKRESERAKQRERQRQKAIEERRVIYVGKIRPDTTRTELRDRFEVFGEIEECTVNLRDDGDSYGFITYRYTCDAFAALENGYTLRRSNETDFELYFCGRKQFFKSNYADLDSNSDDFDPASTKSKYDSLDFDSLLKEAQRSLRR
B2: Steroid hormone receptor ERR1 (Homo sapiens), P11474 (parent)
chain: MSSQVVGIEPLYIKAEPASPDSPKGSSETETEPPVALAPGPAPTRCLPGHKEEEDGEGAGPGEQGGGKLVLSSLPKRLCLVCGDVASGYHYGVASCEACKAFFKRTIQGSIEYSCPASNECEITKRRRKACQACRFTKCLRVGMLKEGVRLDRVRGGRQKYKRRPEVDPLPFPGPFPAGPLAVAGGPRKTAAPVNALVSHLLVVEPEKLYAMPDPAGPDGHLPAVATLCDLFDREIVVTISWAKSIPGFSSLSLSDQMSVLQSVWMEVLVLGVAQRSLPLQDELAFAEDLVLDEEGARAAGLGELGAALLQLVRRLQALRLEREEYVLLKALALANSDSVHIEDAEAVEQLREALHEALLEYEAGRAGPGGGAERRRAGRLLLTLPLLRQTAGKVLAHFYGVKLEGKVPMHKLFLEMLEAMMD
partner: B1 partner
B3: Steroid hormone receptor ERR1 (Homo sapiens), P11474 (parent)
chain: B2 chain

Variants of: B1
Details: with prgc1_human PPARGC1A

effect of a mutation on the interaction | Variant
with no effect | MDSVELCLPESFSLHYEEELLCRMSNKDRHIDSSCSSFIRTEPSSPASLTDSVNHHSPGGSSDASGSYSSTMNGHQNGLDSPPLYPSAPILGGSGPVRKLYDDCSSTIVEDPQTKCEYMLNSMPKRLCLVCGDIASGYHYGVASCEACKAFFKRTIQGNIEYSCPATNECEITKRRRKSCQACRFMKCLKVGMLKEGVRLDRVRGGRQKYKRRIDAENSPYLNPQLVQPAKKPYNKIVSHLLVAEPEKIYAMPDPTVPDSDIKALTTLCDLADRELVVIIGWAKHIPGFSTLSLADQMSLLQSAWMEILILGVVYRSLSFEDELVYADDYIMDEDQSKLAGLLDLNNAILQLVKKYKSMKLEKEEFVTLKAIALANSDSMHIEDVEAVQKLQDVLHEALQDYEAGQHMEDPRRAGKMLMTLPLLRQTSTKAVQHFYNIKLEGKVPMHKLFLEMLEAKV [K40R]

Variants of: B2
Details: with prgc1_human PPARGC1A

effect of a mutation on the interaction | Variant
with no effect | MSSQVVGIEPLYIRAEPASPDSPKGSSETETEPPVALAPGPAPTRCLPGHKEEEDGEGAGPGEQGGGKLVLSSLPKRLCLVCGDVASGYHYGVASCEACKAFFKRTIQGSIEYSCPASNECEITKRRRKACQACRFTKCLRVGMLKEGVRLDRVRGGRQKYKRRPEVDPLPFPGPFPAGPLAVAGGPRKTAAPVNALVSHLLVVEPEKLYAMPDPAGPDGHLPAVATLCDLFDREIVVTISWAKSIPGFSSLSLSDQMSVLQSVWMEVLVLGVAQRSLPLQDELAFAEDLVLDEEGARAAGLGELGAALLQLVRRLQALRLEREEYVLLKALALANSDSVHIEDAEAVEQLREALHEALLEYEAGRAGPGGGAERRRAGRLLLTLPLLRQTAGKVLAHFYGVKLEGKVPMHKLFLEMLEAMMD [K14R]

Variants of: B3
Details: with sumo3_human SUMO3, P55854
Chain of sumo3_human SUMO3, P55854 (P55854 whole entry): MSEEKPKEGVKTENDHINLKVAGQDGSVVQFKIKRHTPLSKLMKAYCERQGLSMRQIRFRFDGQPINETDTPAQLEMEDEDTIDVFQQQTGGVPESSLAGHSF

effect of a mutation on the interaction | Variant
with no effect | MSSQVVGIEPLYIRAEPASPDSPKGSSETETEPPVALAPGPAPTRCLPGHKEEEDGEGAGPGEQGGGKLVLSSLPKRLCLVCGDVASGYHYGVASCEACKAFFKRTIQGSIEYSCPASNECEITKRRRKACQACRFTKCLRVGMLKEGVRLDRVRGGRQKYKRRPEVDPLPFPGPFPAGPLAVAGGPRKTAAPVNALVSHLLVVEPEKLYAMPDPAGPDGHLPAVATLCDLFDREIVVTISWAKSIPGFSSLSLSDQMSVLQSVWMEVLVLGVAQRSLPLQDELAFAEDLVLDEEGARAAGLGELGAALLQLVRRLQALRLEREEYVLLKALALANSDSVHIEDAEAVEQLREALHEALLEYEAGRAGPGGGAERRRAGRLLLTLPLLRQTAGKVLAHFYGVKLEGKVPMHKLFLEMLEAMMD [K14R]
